The numbers were not newly measured in article PMC8175380, which cites them from elsewhere.

One data set has as its target EED (Homo sapiens) (UniProt O75530). Kind of data set: ITC. Background: Isothermal titration calorimetry measures the heat released or taken up as one component is titrated into another.
A further data set has as its target MDM2 (Homo sapiens) (UniProt Q00987). Description: SPR. For orientation: In SPR one partner is held on a chip, and binding of the other changes the refractive index at the surface.

Chain of MDM2 (Homo sapiens) (Q00987 whole entry): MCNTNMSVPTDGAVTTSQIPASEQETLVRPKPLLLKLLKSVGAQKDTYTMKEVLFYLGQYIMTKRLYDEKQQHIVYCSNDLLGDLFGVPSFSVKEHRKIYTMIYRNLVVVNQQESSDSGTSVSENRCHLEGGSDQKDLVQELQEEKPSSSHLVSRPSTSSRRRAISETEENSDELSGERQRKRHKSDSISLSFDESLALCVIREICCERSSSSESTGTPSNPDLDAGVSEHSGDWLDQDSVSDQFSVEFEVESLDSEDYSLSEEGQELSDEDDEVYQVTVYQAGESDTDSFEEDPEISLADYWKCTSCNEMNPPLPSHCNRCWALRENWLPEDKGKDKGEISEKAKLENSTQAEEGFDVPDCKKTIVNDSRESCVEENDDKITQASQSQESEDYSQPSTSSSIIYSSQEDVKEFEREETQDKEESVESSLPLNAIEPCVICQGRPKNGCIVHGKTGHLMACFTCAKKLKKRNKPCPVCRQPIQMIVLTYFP
Chain of EED (Homo sapiens) (O75530 2-441): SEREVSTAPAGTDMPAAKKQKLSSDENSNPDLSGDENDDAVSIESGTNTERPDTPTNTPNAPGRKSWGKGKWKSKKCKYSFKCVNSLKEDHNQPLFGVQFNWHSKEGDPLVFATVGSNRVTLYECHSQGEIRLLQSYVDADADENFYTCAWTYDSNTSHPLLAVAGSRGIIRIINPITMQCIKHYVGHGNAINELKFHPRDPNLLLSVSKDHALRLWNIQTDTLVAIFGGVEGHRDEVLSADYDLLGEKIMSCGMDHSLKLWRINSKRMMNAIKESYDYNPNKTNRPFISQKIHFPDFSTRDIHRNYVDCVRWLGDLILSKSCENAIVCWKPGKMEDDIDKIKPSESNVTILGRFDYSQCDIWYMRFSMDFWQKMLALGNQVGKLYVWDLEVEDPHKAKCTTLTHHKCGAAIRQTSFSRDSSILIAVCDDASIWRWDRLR
Chain of EZH2 peptide aptamer (Q15910 whole entry): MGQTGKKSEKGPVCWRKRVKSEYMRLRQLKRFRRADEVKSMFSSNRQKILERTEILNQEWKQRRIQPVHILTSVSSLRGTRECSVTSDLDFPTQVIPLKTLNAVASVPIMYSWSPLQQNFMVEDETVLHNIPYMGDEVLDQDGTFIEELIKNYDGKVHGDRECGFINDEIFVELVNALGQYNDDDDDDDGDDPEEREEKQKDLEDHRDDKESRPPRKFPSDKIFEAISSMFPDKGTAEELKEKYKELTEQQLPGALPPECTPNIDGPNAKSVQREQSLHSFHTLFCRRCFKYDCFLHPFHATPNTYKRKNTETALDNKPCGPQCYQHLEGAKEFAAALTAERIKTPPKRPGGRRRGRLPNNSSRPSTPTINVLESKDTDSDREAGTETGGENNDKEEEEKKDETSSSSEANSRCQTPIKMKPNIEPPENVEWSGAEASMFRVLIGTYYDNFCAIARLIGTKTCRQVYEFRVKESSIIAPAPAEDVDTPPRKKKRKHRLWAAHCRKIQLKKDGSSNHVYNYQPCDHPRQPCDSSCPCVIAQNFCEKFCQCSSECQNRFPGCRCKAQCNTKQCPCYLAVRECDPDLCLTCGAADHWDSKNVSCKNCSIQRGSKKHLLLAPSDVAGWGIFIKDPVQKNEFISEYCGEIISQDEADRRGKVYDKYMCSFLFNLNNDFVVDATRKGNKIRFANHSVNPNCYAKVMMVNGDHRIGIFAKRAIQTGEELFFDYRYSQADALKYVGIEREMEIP

Consider “EZH2 peptide aptamer (from UniProt Q15910)”, for which the Kd (as a rule, the equilibrium constant for the complex coming apart) with EED (Homo sapiens) is 0.38 µM.
As for “p53 peptide aptamer (from UniProt P04637)”, the Kd with MDM2 (Homo sapiens) is 0.14 µM.
